# In the DeepSol protein solubility set:
# Experiment: soluble on expression in E. coli; label from the status in PepcDB or PDB records
row,Sequence,soluble on expression in E. coli
1,MSEFWKARNWQRKFLVTGRRCFHPMELFSEIKNRYFQLMFRIINECAEGKSKSEVLKIIDEGEFGQKVIGKNQKSFSDLVLNRCAPDENLNLLIEKDGMYYPSIMNSDESGNMAGNAAKKITRPPLPVRFSQIEKAWLKALLDKEEARMILSRETFDKLQKELAGIDTPIKDEYFEFTNKIKLPEIANQKAYEENFRLLLNAIIQEKPIRYNNIDKKGNMYNDRLALPVSIEYSMRDGRFRVSMYLLDENRPVMANVFTLSDIRIVDEDVGFDRETAKRLLLEQKYSEEPIILEVTDEKAAMERCFMCFSGMERTARSLGNNKYEIKLNYYLFEEENLIRNIISLGPYVKVISPQRIVDEVVARVKKAISLYNI,not soluble
2,MTIDTTNESDNSPTNSPGLEASARTFSLNASKMVRITDDYADEVFIEQNDVVIEKPRMDPLHVRKLMETWRKAARRARTNYIDPWDEFNIHEYPVQRAKRYRYSAIRKQWTEDIVDVRLHPDSFARGAMRECYRLKKCSKHGTSQDWSSNYVAKRYICQVDRRVLFDDVRLQMDAKLWAEEYNRYNPPKKIDIVQMCVIEMIDVKGSPLYHLEHFIEGKYIKYNSNSGFVSNAARLTPQAFSHFTFERSGHQMMVVDIQGVGDLYTDPQIHTVVGTDYGDGNLGTRGMALFFHSHRCNDICETMDLSNFELSPPEIEATEVAMEVAAKQKKSCIVPPTVFEARRNRISSECVHVEHGISMDQLRKRKTLNQSSTDLSAKSHNEDCVCPECIPVVEQLCEPCSEDEEDEEEDYPRSEKSGNSQKSRRSRMSISTRSSGDESASRPRKCGFVDLNSLRQRHDSFRSSVGTYSMNSSRQTRDTEKDEFWKVLRKQSVPANILSLQLQQMAANLENDEDVPQVTGHQFSVLGQIHIDLSRYHELGRFVEVDSEHKEMLEGSENDARVPIKYDKQSAIFHLDIARKCGILEAVLTSAHIVLGLPHELLKEVTVDDLFPNGFGEQENGIRDLEEFGSDLMEIAAEMGDKGAMLYMAHAYETGQHLGPNRRTDYKKSIDWYQRVVGFQEEEELDSDCGKTTFSSFAPLTRHEILAKMAEMYKEGGYGLNQDFERAYGLFNEAAEAAMEAMNGKLANKYYEKAEMCGE,not soluble
3,MGSDKIHHHHHHDDNEIEIPKAPVLEKAQLALAIKSEEGAVTKTGETTPTDADVNTLTVGVFGVDGWSVIYTKDATPNSDGTKDVGPQEVYAGEAHVVVVANAAPVIQTELAKAKDITDFIETTINLSDETLTKGLTMSSKVLDVTLVANTTNYIGYDDEVGDITVKDISGKEVYGAGPVPLVRDVASIALAGADIGNPENANYESKSFVLKEVFIASAKGVSSVASTEEWGTIEKDFFGDTHFGYLDYKVGLLFLTSPNNIDEGSYKKGLQTKYDALAKKHVENDPALNHEFYVYENTKGEVKSGESNVNEAYANHTLLIVKGDYTYLPQGAKESITKENCYYAIPVGEEVTIDGTEKRSKFYVQRNYKYEISLTIIGPGSEIPYDPMISTNVSASVKVEPWNVKTIHEEVE,not soluble
4,MSNIKKYIIDYDWKASIEIEIDHDVMTEEKLHQINNFWSDSEYRLNKHGSVLNAVLIMLAQHALLIAISSDLNAYGVVCEFDWNDGNGQEGWPSMDGSEGIRITDIDTSGIFDSDDMTIKAA,soluble
5,SAAARATTPADGEEPAPEAEALAAARERSSRFLSGLELVKQGAEARVFRGHFQGRAAVIKHRFPKGYRHPALEARLGRRRTVQEARALLRCRRAGISAPVVFFVDYASNCLYMEEIEGSVTVRDYIQSTMETEKTPQGLSNLAKTIGQVLARMHDEDLIHGDLTTSNMLLKPPLEQLNIVLIDFGLSFISALPEDKGVDLYVLEKAFLSTHPNTETVFEAFLKSYSTSSKKARPVLKKLDEVRLRGRKRSMVG,soluble
6,MGSDKIHHHHHHMPNTFEHLQAAHCENGVTTNLLRNVGVSKMTEPLAFGIGSGLFFIYIPLMKINGGPAIAYRTMPGLIFKRTAQSLGIDVVRKTFRSTIKAQEFLDACIKAGQPVGCQVGVYFLSYFPKEYRFHFNAHNLIVYGKEGDNYLVSDPVMETTNILSTYELERVRFAKGALAPKGQIYFPKPNHEPVSDDKIRKAIVTGVKRNIRDMLHIPGPIAGVSGIKYTGNKIKNWRDKLGIEKAGLYLAQLVRMQEEIGTGGGGFRFIYGAFLQQAHAFHNDDQLLEISKSFTQSGDLWRSAAIQAAGIYKGRITSQADFNVMGDYLLEISELEKKAFKELTKIKWQK,not soluble
